Data: the domain aggregation screens of Martell et al. (2025)

Assay: soluble fraction after stress (log2 fold change); higher = more stays soluble; pooled small domains, quantitative proteomics
Settings: stress: 75 degC
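Also: 20 min heating vs room temperature control held 20 min.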

Sequence | soluble fraction (log2)
HMDPALSPAEQKIWDLLAAGETHIDDLVRASGLPVATVNSALVMMEMKEVISQVAAKTYRRNRRN | -1.3
HMDPEARRRAILNAAIDVIVEKGAAALTHRAVAARAGVSLGSTTKYFSSIEDLRENAMDALVREMD | -0.496
HMDPEEQIQSREIWEAVERALDGMQEKGRRVVIALLEGQTQLEVSRAAGISQPLISYYLKSFRTKVRTELG | -0.73
HMDPEIADAVNTIKKYLESHYSEVITRKKIEELVHLNQDHINREFKKQTGYTLMEYVQHYRILMAKKMLRV | -0.576
HMDPEQLKIAINTKMPFGKYSGRPLLLLPEPYLVWFKQQGFPDSKLGSQLAMMYEVKLNGLEQMLMPLL | -0.665
HMDPERLDQLQNPDPAVRREAIIALGRSKDLAALPELAKVYKNDPVPELRELARQAGRYIQQENRP | 0.00398
HMDPFVILGISKDSSQSEILEAYKTKRAYYQEHVFDEGDQGAQAARMLGQLDDAYQQAMELSHE | 0.0281
HMDPKISWESDEKLSANIGHYENSIKPLMGNKYLIELSQLKDKIESHPWVARATIKRIFWNKIHIQLESHD | -0.0642
HMDPKWSHVRRLLDDENPIVRKALTEELIRSPEEGLAFLEQVIREPDHLLAKHAHNLLSELGWV | 0.192
HMDPLGHVIKKKRLQLGMTLRDLAAKAGVHHATIDRIETDQFKVVDPSTLVKIAEALHLDQLYLLSLN | -0.666
HMDPLPDEVQEVIDMVDGFKAMDELSEADKADVKAAYDAYNALSAEHKAMVPEHIVTFLNRAYDKLFD | 0.159
HMDPPVDLTPREQQVLSRIALGMSDKAIAAELGVSHQTVRNHVARIYAKIKVHSRSQAIVWAREKGIP | -2.36
HMDPSKMKIDELEIATRTATALADGGIKSVAGLIRKSASALKELDGVGDKAIAEITEALEKLGLELKG | 0.106
HMDPSWVPVFNNLRDAILSHQLLPGTRLAEDELSNIYGLGRTVIRSALGALTHEGLLTHIPNRGVHVAKP | -1.16
HMDPTIAAIRKKLKNWTIVEVHMTREELEQAVIDGKVDVFLSSAGFYRRLVRFGARDLATAMSPAYPD | -0.68
HMDPTYYFNLYPNPSKDEVSLFTNFTGKINIEILDLAGKSILSDNPISTISLVSLKEGLYLVKVKS | -0.178
HMDPYLSGLLQKLAETDKKISFTRLRSEDLDGESREAIYEFIEKYSGRFGVRWLLNEFGLSPSVYYNYLHS | -0.727
HMDQDLGFLINKYFELGKDYNTLVEIYEKIKEYIASIDKKMLEYTKNFTIEQLKKWLDDGTINNIILTLG | -0.122
HMDQEDAYMQVRQVFDTLLVSELSKRIFAWRFFEGKSFAEWPGAESQKFLYDTFNRILLIISAKIRRKNA | -0.0464
HMDQHERQQLLIHIAGGEREALAELYQRTRSAVYGLALSYLKNAHDAQDLTRDVYVQVWDRA | -0.0158
HMDQQTKFKTALAALAASAETKDRKLTKADVKEFLEDMDLGEEQMKLVYAYLASKHIHVEGAE | ≥ 1.04
HMDQSIDADIINLNFSKNIIKIEENVYYKNNNAKVNADKIEINIETKKLKISMNEQEDEVEIFAK | 0.552
HMDQTIFFGQQKAINNLSTDAGLSATELDEYLKKRYKRPLYQLTQAEGAEIIKGFQDGALSRSSILDYTK | 0.0434
HMDRKFFFNEQYEDYINSDLKVKFMNDSGSKKSFQGELTKVTPSDLFLESEKESVKVPFSSIIQANLI | -0.197
HMDRLTISTLGNGLFRVNGAEAEATVYNLSGNVVKVVPADEVIDLSSLAKGVYIIHVDGEAFKVI | -1.13
HMDRMFQPETWSKIYQWVMNDPQVPDKEDVLALIRRHFGNFEKLIKLLHYLDGGKPYAYLSEH | -0.473
HMDRSLYVGDAVGFDSARGLMEIEVKNKFSVVAVSLKKKPSGNFITPLLRMEKKKGEAVTVAPGSGHR | -0.514
HMDRSQRDQEQAQLIRLVQQAFDDSGQRYGAEKIRITLAEGGIRVSTKRIAAIMQELDLRSI | -2.41

Sequence | soluble fraction (log2)
HMDRSRAEIDLGHVETAIRTLAEGGMVQEYAIGGRSLKRYKMGELLQLKAELENEINMERRKEKMRQ | 0.212
HMDRVDGWLHDGKLYLRVVDYKTGKKSFDLAELRYGLGLQMLLYLFTLKEEGQMLFGGHEIVPAGVL | -0.514
HMDRVSEITLTRLRDYAADGQVRTATLTHRTNVVTGTLRDGRRFSAGVPPMYGDELTTFLLDNGVRVDSDN | -0.41
HMDSDMGQQLKTLLTVGTFMSSKELKAIAQQLGLKKPTDLKEWVELESGTQRIEGKPTKGYWIKMNDINN | -0.367
HMDSGINVWASAEGLTITADKDTTVYVYDIYGRTIHTSEVKAGTSDIAINTKGIVIVKANGYTKKII | -1.77
HMDSILSIVGGEESYKALLAWAENNISQQELQQLETILKSGNVPAIKRVLVTLMNRFNQAQS | -0.114
HMDSINGEASISRELHGTRFDQAAAILFPEFSRSRLQAWIGAGALTLDGQTARAKDKVTQGQHLVLAAAVE | -0.54
HMDSINIDEETAKLGPNAPQIIDGIKKWGQGLVAKGVWSDEDFDEFKVFAATSSGINALNKIRKYY | 0.188
HMDSKYLRIFSTLIDEMEKMSPGEQLQSERELSQRFQVSPMTVRRALHKLSTEGYTSAIPGKGTFVRK | -0.707
HMDSLELADEVGRVSEALQELRPHQREVLELSLVHGRSHQQISEKTGLALGTVKSHARRGLMRVREMLGV | -0.381
HMDSLIEYENERSLRRLINENLSDYERTVWWLYYAGADAAHIAEQTGRSKRSAENAITRVRRKLRALITQS | -1.33
HMDSNISVSEALEMVDKGSVKEIIVEGEKLYITNQDGKQYTSSKEVGVSLIELMKDSGIDPIKSDVNIIVK | 0.463
HMDSRVRHAVLTTLLGKRIVDDLVEKGELPGTPLVLATAPGLDRDLEQLIAQRVVTALLTTV | -0.0018
HMDSSALEPIVDQIIADNPKQVEQFQAGKTKVLGFFVGQVMKQTDGTANPKQVNELVAARLKSA | 0.0418
HMDSTDSIIHYVRAHRSLEVKNLSFAEARFKKVVELEPNFARGWLGLGEVSILKNNFENASIYLDKALE | -0.282
HMDSTLTNEIYNELYRAITHQELKPGQNLTLTMLKKQFNVSHTPIREALTRLSADGLVTYHPNKGMKVT | -0.444
HMDSTTHALALVRTLPRDQAEAVLLRVVADLDYADVAEIMGRSPGAVRVLVHRGLRRLEQELATRRT | -0.574
HMDSVEYRVITGDDVNFRKGPSTDYASLGKLNKGYKVEYISETNSWSKVKYNGQTGYVYSKYVAQT | -0.155
HMDSVTVPDISGYSPKAAEDSINNAGLKINEQGLSGSGDGQVVERTSPSAGSKVKKGDSVTVYYSKA | 0.0423
HMDTDVFLMDLRGESRDYAEEVLINNNLEVKVIILPFSKRHYPGKVVEMRPSPFTKVKKGRIITLSVAGN | -3.73
HMDTDWDVSGVTPDQYRLLFSVLGGLAGVKDVGLNPDGLRIIHTPEALPSIEKAFQANGLKLKRNVD | -0.0943
HMDTETLIDKYQLNASEAAVLRFMDKNRDSLRDLGIRDVARASYVSTATIVNMAKKIGYSGYSELVFAYGS | -3.69
HMDTFSVAIGTKTPDGSSVGEVKTISRDELLLLEDEVAEDPTKEIIFTGGTKDSAQAALDGWIDYNTNLAS | 0.0395
HMDTFYKNLSKKIKTIREKLSFSQEALAKELGISRVAISQIENGDRKISAEEIAKLSRVFNVPTDILLN | -0.281
HMDTHDVQVPQEGQGLRLDLFLTDHIEGSRSFIQTIIKDGHVILNGKKAKANSRLNEGDYVVWSIPKPE | -0.288
HMDTHRLNYSDFVAEVQAQRVSKVVIDGYTIVGQRTNGETFETVRPALQDPKLVDDLLQNNVIIEGKQPE | -0.0116
HMDTIVHFLSDGRRITVRIKRNARKNIILRPMAADAVSATIPPWLGRRQLSAWLSEREDLLLSVLSRAA | -3.34
